Measured values: PMC10011603, “TRAK adaptors regulate the recruitment and activation of dynein and kinesin in mitochondrial transport” (Nature Communications, 2023)

How the values were obtained:
[1] = target: T1, full-length human kinesin-1 heavy chain (KIF5B-GFP-SNAPf) (human, UniProt P33176 1-963, fluorescent dye in motility assays (LD555-kinesin, Alexa488-kinesin)); test: cell-based or functional assay
T1 sequence (looked up): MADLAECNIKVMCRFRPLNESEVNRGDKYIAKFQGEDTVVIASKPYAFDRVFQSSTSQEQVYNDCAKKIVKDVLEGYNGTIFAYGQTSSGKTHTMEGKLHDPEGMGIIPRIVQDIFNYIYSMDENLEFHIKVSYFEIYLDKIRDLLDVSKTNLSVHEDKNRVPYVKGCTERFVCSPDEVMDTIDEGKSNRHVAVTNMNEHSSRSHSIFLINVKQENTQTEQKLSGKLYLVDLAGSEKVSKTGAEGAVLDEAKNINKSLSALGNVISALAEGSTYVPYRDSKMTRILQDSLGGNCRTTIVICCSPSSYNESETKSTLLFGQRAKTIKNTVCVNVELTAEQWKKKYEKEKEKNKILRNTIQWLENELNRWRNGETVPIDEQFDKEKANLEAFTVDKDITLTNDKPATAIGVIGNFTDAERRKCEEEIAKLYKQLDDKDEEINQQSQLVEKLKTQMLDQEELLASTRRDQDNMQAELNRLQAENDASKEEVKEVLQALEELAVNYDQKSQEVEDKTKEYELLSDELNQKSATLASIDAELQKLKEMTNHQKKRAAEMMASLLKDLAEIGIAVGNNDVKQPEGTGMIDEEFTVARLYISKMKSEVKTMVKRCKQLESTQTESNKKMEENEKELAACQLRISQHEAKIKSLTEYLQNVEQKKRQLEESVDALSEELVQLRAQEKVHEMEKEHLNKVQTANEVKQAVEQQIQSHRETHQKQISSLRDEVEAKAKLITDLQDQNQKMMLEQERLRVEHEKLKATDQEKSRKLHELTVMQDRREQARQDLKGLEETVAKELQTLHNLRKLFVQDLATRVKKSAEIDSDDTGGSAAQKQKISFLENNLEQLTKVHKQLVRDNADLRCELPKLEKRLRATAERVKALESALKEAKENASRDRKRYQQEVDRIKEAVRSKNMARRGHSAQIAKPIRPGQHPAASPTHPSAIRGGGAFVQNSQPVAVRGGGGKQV

[2] = target: T1, full-length human kinesin-1 heavy chain …; test: single-molecule TIRF colocalisation on microtubules; two-colour imaging of labeled kinesin and labeled TRAK constructs on surface-immobilized MTs, 0-50 nM MAP7, 1 mM Mg·ATP; also with 2 mM Ca2+; details: both partners purified
[3] = target: T1, full-length human kinesin-1 heavy chain …; test: single-molecule TIRF colocalisation on microtubules; three-colour imaging of Alexa488-KIF5B, LD555-TRAK1 1-532 (or full-length TRAK1) and LD655-Miro1 1-592; 10 nM MAP7; 0, 0.1 and 2 mM Ca2+; details: both partners purified
[4] = target: T2, Miro1^1–592 (Miro1^1–592-SNAP-psc-StrepII) (human, UniProt Q8IXI2 1-592, LD655 dye on the SNAP tag in motility assays); test: as above; details: both partners purified
T2 construct: mitochondrial Rho GTPase 1 (Miro1), human, residues 1-592, lacks the transmembrane domain; A PreScission site (psc) stands between SNAP and StrepII; no cleavage is told; also called Miro1^1–592-StrepII; Miro1^1–592-SNAPf-StrepII; source: purified (Streptactin Sepharose, eluted with desthiobiotin); not shown: SNAP, C-terminal, kept; StrepII, C-terminal, kept
T2 sequence (Q8IXI2 1-592): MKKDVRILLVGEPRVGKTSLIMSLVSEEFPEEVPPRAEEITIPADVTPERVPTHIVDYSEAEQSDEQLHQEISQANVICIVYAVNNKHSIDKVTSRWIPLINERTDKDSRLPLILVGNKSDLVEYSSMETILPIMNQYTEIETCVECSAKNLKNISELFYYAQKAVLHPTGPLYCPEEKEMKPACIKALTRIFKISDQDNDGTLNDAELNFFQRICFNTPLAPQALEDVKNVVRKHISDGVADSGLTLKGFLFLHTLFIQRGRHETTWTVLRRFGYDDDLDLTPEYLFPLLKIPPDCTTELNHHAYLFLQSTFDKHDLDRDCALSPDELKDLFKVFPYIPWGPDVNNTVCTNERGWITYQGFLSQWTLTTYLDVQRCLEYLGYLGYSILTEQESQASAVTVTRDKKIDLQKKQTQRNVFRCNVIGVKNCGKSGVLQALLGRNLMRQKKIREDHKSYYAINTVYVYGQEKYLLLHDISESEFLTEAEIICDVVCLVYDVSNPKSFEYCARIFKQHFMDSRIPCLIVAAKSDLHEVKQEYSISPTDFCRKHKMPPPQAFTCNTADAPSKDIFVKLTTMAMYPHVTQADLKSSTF

B1: TRAK1^1–360 (domain or fragment, human, UniProt Q9UPV9 1-360, looked up)
chain: MALVFQFGQPVRAQPLPGLCHGKLIRTNACDVCNSTDLPEVEIISLLEEQLPHYKLRADTIYGYDHDDWLHTPLISPDANIDLTTEQIEETLKYFLLCAERVGQMTKTYNDIDAVTRLLEEKERDLELAARIGQSLLKKNKTLTERNELLEEQVEHIREEVSQLRHELSMKDELLQFYTSAAEESEPESVCSTPLKRNESSSSVQNYFHLDSLQKKLKDLEEENVVLRSEASQLKTETITYEEKEQQLVNDCVKELRDANVQIASISEELAKKTEDAARQQEEITHLLSQIVDLQKKAKACAVENEELVQHLGAAKDAQRQLTAELRELEDKYAECMEMLHEAQEELKNLRNKTMPNTTS
modifications: LD555 or LD655 dye on the SNAP-tag in motility assays
kinesin landing rate on MTs in the presence of MAP7, 5-20 nM TRAK1 1-360 against no TRAK [1]: 5 fold

B2: TRAK1^1–400 (domain or fragment, human, UniProt Q9UPV9 1-400, looked up)
chain: MALVFQFGQPVRAQPLPGLCHGKLIRTNACDVCNSTDLPEVEIISLLEEQLPHYKLRADTIYGYDHDDWLHTPLISPDANIDLTTEQIEETLKYFLLCAERVGQMTKTYNDIDAVTRLLEEKERDLELAARIGQSLLKKNKTLTERNELLEEQVEHIREEVSQLRHELSMKDELLQFYTSAAEESEPESVCSTPLKRNESSSSVQNYFHLDSLQKKLKDLEEENVVLRSEASQLKTETITYEEKEQQLVNDCVKELRDANVQIASISEELAKKTEDAARQQEEITHLLSQIVDLQKKAKACAVENEELVQHLGAAKDAQRQLTAELRELEDKYAECMEMLHEAQEELKNLRNKTMPNTTSRRYHSLGLFPMDSLAAEIEGTMRKELQLEEAESPDITHQK
modifications: LD555 or LD655 dye on the SNAP-tag in motility assays
notes: TRAK1, human, residues 1-400; full length printed as 1-953; also called T1^1–400; N-terminal coiled coil of TRAK1 with CC1 box and Spindly motif; source: baculovirus-infected SF9 cells, purified (IgG Sepharose, TEV protease); not shown: His6-ZZ, N-terminal, cleaved; SNAP-tag or GFP, C-terminal, kept
binding result [2]: binds

B3: TRAK2^1–400 (domain or fragment, human, UniProt O60296 1-400, looked up)
chain: MSQSQNAIFTSPTGEENLMNSNHRDSESITDVCSNEDLPEVELVSLLEEQLPQYRLKVDTLFLYENQDWTQSPHQRQHASDALSPVLAEETFRYMILGTDRVEQMTKTYNDIDMVTHLLAERDRDLELAARIGQALLKRNHVLSEQNESLEEQLGQAFDQVNQLQHELCKKDELLRIVSIASEESETDSSCSTPLRFNESFSLSQGLLQLEMLQEKLKELEEENMALRSKACHIKTETVTYEEKEQQLVSDCVKELRETNAQMSRMTEELSGKSDELIRYQEELSSLLSQIVDLQHKLKEHVIEKEELKLHLQASKDAQRQLTMELHELQDRNMECLGMLHESQEEIKELRSRSGPTAHLYFSQSYGAFTGESLAAEIEGTMRKKLSLDEESSLFKQKAQ
modifications: LD555 or LD655 dye on the SNAP-tag in motility assays
notes: TRAK2, human, residues 1-400; full length printed as 1-914; also called T2^1–400; N-terminal coiled coil of TRAK2 with CC1 box and Spindly motif; source: baculovirus-infected SF9 cells, purified (IgG Sepharose, TEV protease); not shown: His6-ZZ, N-terminal, cleaved; SNAP-tag or GFP, C-terminal, kept
binding result [2]: binds

B4: full-length TRAK1 (TRAK1^1–953) (natural protein, human, UniProt Q9UPV9 1-953, looked up)
chain: MALVFQFGQPVRAQPLPGLCHGKLIRTNACDVCNSTDLPEVEIISLLEEQLPHYKLRADTIYGYDHDDWLHTPLISPDANIDLTTEQIEETLKYFLLCAERVGQMTKTYNDIDAVTRLLEEKERDLELAARIGQSLLKKNKTLTERNELLEEQVEHIREEVSQLRHELSMKDELLQFYTSAAEESEPESVCSTPLKRNESSSSVQNYFHLDSLQKKLKDLEEENVVLRSEASQLKTETITYEEKEQQLVNDCVKELRDANVQIASISEELAKKTEDAARQQEEITHLLSQIVDLQKKAKACAVENEELVQHLGAAKDAQRQLTAELRELEDKYAECMEMLHEAQEELKNLRNKTMPNTTSRRYHSLGLFPMDSLAAEIEGTMRKELQLEEAESPDITHQKRVFETVRNINQVVKQRSLTPSPMNIPGSNQSSAMNSLLSSCVSTPRSSFYGSDIGNVVLDNKTNSIILETEAADLGNDERSKKPGTPGTPGSHDLETALRRLSLRRENYLSERRFFEEEQERKLQELAEKGELRSGSLTPTESIMSLGTHSRFSEFTGFSGMSFSSRSYLPEKLQIVKPLEGSATLHHWQQLAQPHLGGILDPRPGVVTKGFRTLDVDLDEVYCLNDFEEDDTGDHISLPRLATSTPVQHPETSAHHPGKCMSQTNSTFTFTTCRILHPSDELTRVTPSLNSAPTPACGSTSHLKSTPVATPCTPRRLSLAESFTNTRESTTTMSTSLGLVWLLKERGISAAVYDPQSWDRAGRGSLLHSYTPKMAVIPSTPPNSPMQTPTSSPPSFEFKCTSPPYDNFLASKPASSILREVREKNVRSSESQTDVSVSNLNLVDKVRRFGVAKVVNSGRAHVPTLTEEQGPLLCGPPGPAPALVPRGLVPEGLPLRCPTVTSAIGGLQLNSGIRRNRSFPTMVGSSMQMKAPVTLTSGILMGAKLSKQTSLR
notes: TRAK1, human, residues 1-953, full length; source: HEK 293 F GNTI-/- cells, PEI transfection, purified (TRAK purification procedure); not shown: His6-ZZ, N-terminal, cleaved; SNAP-tag or GFP, C-terminal, kept
binding result [2]: binds

B5: full-length TRAK2 (TRAK2^1–914) (natural protein, human, UniProt O60296 1-914, looked up)
chain: MSQSQNAIFTSPTGEENLMNSNHRDSESITDVCSNEDLPEVELVSLLEEQLPQYRLKVDTLFLYENQDWTQSPHQRQHASDALSPVLAEETFRYMILGTDRVEQMTKTYNDIDMVTHLLAERDRDLELAARIGQALLKRNHVLSEQNESLEEQLGQAFDQVNQLQHELCKKDELLRIVSIASEESETDSSCSTPLRFNESFSLSQGLLQLEMLQEKLKELEEENMALRSKACHIKTETVTYEEKEQQLVSDCVKELRETNAQMSRMTEELSGKSDELIRYQEELSSLLSQIVDLQHKLKEHVIEKEELKLHLQASKDAQRQLTMELHELQDRNMECLGMLHESQEEIKELRSRSGPTAHLYFSQSYGAFTGESLAAEIEGTMRKKLSLDEESSLFKQKAQQKRVFDTVRIANDTRGRSISFPALLPIPGSNRSSVIMTAKPFESGLQQTEDKSLLNQGSSSEEVAGSSQKMGQPGPSGDSDLATALHRLSLRRQNYLSEKQFFAEEWQRKIQVLADQKEGVSGCVTPTESLASLCTTQSEITDLSSASCLRGFMPEKLQIVKPLEGSQTLYHWQQLAQPNLGTILDPRPGVITKGFTQLPGDAIYHISDLEEDEEEGITFQVQQPLEVEEKLSTSKPVTGIFLPPITSAGGPVTVATANPGKCLSCTNSTFTFTTCRILHPSDITQVTPSSGFPSLSCGSSGSSSSNTAVNSPALSYRLSIGESITNRRDSTTTFSSTMSLAKLLQERGISAKVYHSPISENPLQPLPKSLAIPSTPPNSPSHSPCPSPLPFEPRVHLSENFLASRPAETFLQEMYGLRPSRNPPDVGQLKMNLVDRLKRLGIARVVKNPGAQENGRCQEAEIGPQKPDSAVYLNSGSSLLGGLRRNQSLPVIMGSFAAPVCTSSPKMGVLKED
notes: TRAK2, human, residues 1-914, full length; source: HEK 293 F GNTI-/- cells, PEI transfection, purified (TRAK purification procedure); not shown: His6-ZZ, N-terminal, cleaved; SNAP-tag or GFP, C-terminal, kept
binding result [2]: binds

B6: TRAK1^1–532 (domain or fragment, human, UniProt Q9UPV9 1-532, looked up)
chain: MALVFQFGQPVRAQPLPGLCHGKLIRTNACDVCNSTDLPEVEIISLLEEQLPHYKLRADTIYGYDHDDWLHTPLISPDANIDLTTEQIEETLKYFLLCAERVGQMTKTYNDIDAVTRLLEEKERDLELAARIGQSLLKKNKTLTERNELLEEQVEHIREEVSQLRHELSMKDELLQFYTSAAEESEPESVCSTPLKRNESSSSVQNYFHLDSLQKKLKDLEEENVVLRSEASQLKTETITYEEKEQQLVNDCVKELRDANVQIASISEELAKKTEDAARQQEEITHLLSQIVDLQKKAKACAVENEELVQHLGAAKDAQRQLTAELRELEDKYAECMEMLHEAQEELKNLRNKTMPNTTSRRYHSLGLFPMDSLAAEIEGTMRKELQLEEAESPDITHQKRVFETVRNINQVVKQRSLTPSPMNIPGSNQSSAMNSLLSSCVSTPRSSFYGSDIGNVVLDNKTNSIILETEAADLGNDERSKKPGTPGTPGSHDLETALRRLSLRRENYLSERRFFEEEQERKLQELAEKGE
modifications: LD555 dye on the SNAP-tag in motility assays
notes: full length printed as 1-953; also called TRAK1 construct containing the coiled coils and part of the C-terminal domain; source: baculovirus-infected SF9 cells, purified (IgG Sepharose, TEV protease); not shown: His6-ZZ, N-terminal, cleaved; SNAP-tag or GFP, C-terminal, kept
binding result [3]: binds | binding result [4]: binds
